This data set in a line: label from the status in PepcDB records.
As for “MLILAIPGYIYYHQQQEQAANQQLGQILPVYEQGNFQQALDGTGDRAGLLAIADDYGGTDAGNLATFYAANALYQRDEYDRALTYYQRFEKEKDFIGASAYAAQAAIQETRGSFERAGGLYEQAASQYQNKLTAPRYLLNAGQAYEEAGQYEAAIGVYERIQEEYPDSEQASNAERYLARAKVHQGSTSSS”, the protein production result was “failed”.

Turning to “MKNQSPVPSYEGNVFMIDARDLSIAWSEDSNHWTWLPLPNQNSNTILSSESVMEIAFLKSASWLDVAGKFDTRYLTPRTRYEVVFVVKLEYTFEWETLVKLKLDLPNTWEKPQEQSVDMFDYISDQWLDIPVGEFTTSKKNVGEISFAMYEHECQLWKSGLFVKGVTIRPKY”, the protein production result is reported as “failed”.

As for “MISYIQTKIHHINFLHDSLFKNAFFLMLSSISTAGFGFIFWFLAAKFYSASDVGIATGIMSSMTLIVNLSRFGLDYSIIRFFPTHDKCKVFSTSTVISTLIALIFGLIFISGINSFSPELSFLRSPLYTLFYFISLTSSSVIFMAGIFFVAIREAEFQLYLNLIVGSRVLFVILFISLGAIGIFYAVGASFFIAFLISLVLILKSGTDLKLKIDRKFLTDSFNFSAGNFLTGLFMTVPNTLLPIMILNMHLVEQAAYYYIVFGIVSLLFMIPESISTSLFVEGSNGQSLKKTVIQSLVIIFLLLTPIALFFYLYGSLILGFIGQDYVAGGSGVFRLMIFASFFVVVNNVYFAIKRIQKDTKEITLLSGIIFILLIGLAFLLIPVLGIEGIGYAWIISYGTGALIILIQVFRKARFQNLLIKAM”, the protein production entry is listed as “failed”.

For the sequence “MPSLGEAPQDLQRSQERRRIERIFAQGGKGVASPHRFPGPLPMLQNIPTHVIAGPLGAGKTSLIRHLLSQRPAAERWAVLINEFGQIGLDAALLTRDEDGIALGEVAGGCLCCVNGAPFQVGLGRLLRKARPDRLLIEPSGLGHPAQLLKQLNEAPWKGVLAVQPCVLVLDAQALAAGKPLPRAQQDALSSAGLLVLNKDELLSDSDRLRVLEQLPDLPLFWTRHAALPLAELPGLGASAEAALEQSDIPQGLAQLPAVWSDPTLPICLSQSQEDGWSIGWRWHPSQQFDLVRVEHWLQNLDWRRAKLVLHSDQGWRSGNGLDNSPLNWLPSEWRRDSRLELIFSSPQDIAVLQASLDACRLLEHHHHHH”, the protein production result is recorded as “failed”.

On to “MSMATPSSAQRFNDRVAAYVRYRPSYPPQLLRWLHGELGVTPATAVADIGAGTGISSRLFLEAGYAVTAVEPNQAMREAALQWLAEFPKFQAIDGTAEATGLADASVGLVSAAQAFHWFDMQAVRDEWARILQPGGLAVVYWNSRELDSTAFLRGYEQLLLDYGTDYSAVAERYQDDATMQAWFGEGFRAMARFPNVQRLDFESLRGRLLSSSYAPLAHDPRHAPMLAALRTLFDAYAHDGLIDFQYQTRVFAGRLN”, for which the protein production entry is on record as “failed”.

As for “AEEKVKDEAMQIMGMFQILPRLVVFDLDYTLWPFYCECRSKREMPSMYPQAKGILSALKEKGIEMAIASRSPTSDIANTFLDKLNIKPMFVAKVSKMGVTSILVGDGVTLGAFRQGLTEFTQNHNSIEKNKQVWRDKYSG”, the protein production result was “failed”.

Consider “KMLMPIEFELVESAPLFHELLHLRDAVGLPSIGVDMADGHPLQPLYWVSIHLTAKQDKNTATIVATACVYGDNANHFAIEDFIVLPEYRHIGLGKIILERVMAFVDDRATLGTYVSINTHGEQEKLCTDYGFAHSH”, for which the protein production result is “failed”.

Take “MTNDQIKKAKNGTYYFRANLGYDVKGKKIQKYRSGFKTKKEAREEYSRLLLMNPDDLNENKDKMMFEYYINEIFLPWYKTQVKLRTYENRIPTIQKHFPYFYKMAVSDIEPINVQDWQLKMTKNLKPSYVRAVQGLFSVAMDRAIVLGITTTNPSKIIGNVKKVKPKVEFWTKEEFEKVLSLIYKEDYYQNFLFISLWFLFMTGMRIGEATAIQWEDIDFETGVVSITKTLYYKSQIDYKFVEPKTKASVRHIVLDKVTLSYLADWREVQQNVVKTNFVMSYNGIPTQKHTIAHAIDRFSKMAGIHRIKIHALRHSHASLLISMGENPLIIKERLGHEDIETTLGTYGHLYPNSNFEVASKLNGIISFQPAEQNLDSSPKNQFTVNYRQNKQPNSAIKVQ”: the protein production result was “failed”.

For “MALNVAPVRDTKWLTLEVCRQFQRGTCSRSDEECKFAHPPKSCQVENGRVIACFDSLKGRCSRENCKYLHPPTHLKTQLEINGRNNLIQQKTAAAMLAQQMQFMFPGTPLHPVPTFPVGPAIGTNTAISFAPYLAPVTPGVGLVPTEILPTTPVIVPGSPPVTVPGSTATQKLLRTDKLEVCREFQRGNCARGETDCRFAHPADSTMIDTSDNTVTVCMDYIKGRCMREKCKYFHPPAHLQAKIKAAQHQANQAAVAAQAAAAAATVMAFPPGALHPLPKRQALEKSNGTSAVFNPSVLHYQQALTSAQLQQHAAFIPTVPMMHSATSATVSAATTPATSVPFAATATANQIILK”, the protein production result was “not failed”.

“MVSVTFEPVGKKVEDEPDTILEIARRNGVLIRSDCGGKGVCGKCKVVVVDYRGSLSDITDHERKHLIEEEISKGYRLACQARVEEGRATIFIPPESRLERRKVAGLTIEKEVELNPAVRKVYAEIQPPSIEDQLPDYDRLTRALGDFSLDLETLSEMPKLLREAEWRVTATFWNGRLIDLEKGDVSDRCYGVAVDVGSSKIICHLVDLKSGETIATGYSDNPQVAYGEDIVSRITYASKSAENRKRLQTVVVETVNQIIAELCNESGVDLRHVYEVMIVGNSVMHHLFFGIEPRFIGVSPFTPAVRRGVSFPAEDVGLRINRKGYVSSLPLVAGFVGADAVANIAITGIHKAEEISMVIDIGTNTEIVIGNREKLGVCSAPSGPAFEGAHITFGMKAISGAIDSVRIERDEVIYTTIDNAKAKGLCGTGLIDLIAELYRNGIINRNGKFVKDHSRIIVDGVPKFVVAKAEETEFGKPITVSEKDINELLMAKGAIKSGWMILSERLGIEPDKIERIYLAGSFGRHINVENAKVIGLLPDIPSEKITFAGDTAVGGAKMALKSVRVRDEMEDVVSRLNYVELSVEKNFYSVFVRAIPI”: the protein production entry was “not failed”.

For the sequence “MFSFPAVLEAGIVFLYIAVALFLATLGIWIARTFLMPNVIKEDWNSLNRISFTTVIPLSASVMNAAIIAYYGFNVHYEYLYLVNYFIDFTSILFLSFFLGYKLYTKSPVHTNEISYGLLIPPVAISSNVLLGSSLMRTQYFNSIIFLTVIGVGIALFLFLFIGIMTFASYIRDQKANAPSPMLVLPVGVSSIIVINILAIATAKSVFQIPMADALTVSFMLWAFELWNFVVAMMISLKRVFREPATISIWAYTFPMAIFSVSSLDLRSIIGRYGYITASNIVYYIGIGAWVILIVAWVYAVMSTAIFLSHIKMIAYPG”, the protein production result is listed as “failed”.

Consider “MSLADISVIQSLPLSGSQAVTGRALNAGARLYFDWLNLNGGINGETIRLVARDDEQKIEQTVRNVRDMARVDNPVALLTVVGTANVEALMREGVLAEARLPLVGPATGASSMTTDPLVFPIKASYQQEIDKMITALVTIGVTRIGVLYQEDALGKEAITGVERTLKAHALAITAMASYPRNTANVGPAVDKLLAADVQAIFLGATAEPAAQFVRQYRARGGEAQLLGLSSIDPGILQKVAGLDAVRGYSLALVMPNPGKSVNPVIREFNRARAAVGAKDVDLSFRAVEGFVAAKVLAEAIRRAGPKPTREQVRHALTELRDYDVGGGFTVDFTDRSRPGSHYIELGVVGPNGLVIQEGHHHHHH”, for which the protein production result is on record as “not failed”.

For the sequence “GSGATSAAGKPQETFLDFNESPYGPSAKARAAMQRAAALCGRYDYDAQDALVGLFAKQNGIPAECVHAYCGSRQPLQYAVAAFTGKERGLVIADPSYDSVVGAAQAQGAKVAAVPLDAEAAHDIERMLAAAQRDAGLIYICNPNNPTGTLTPHERIVRAIERKPERSVVLVDEAYIHFSDAPSVVGLAVQRQDVLVLRTFSKLYGMAGARLGLAIGHPQLLARLERFGGHNVVPSPTAHAGLESLRDDDLVPRRKQQNAEVRERTIAWLRQQGFRCTASQSNCFMVDMRRPAELVIAELEKQRVHVGRPWASWPNWVRVTVGSEEEMQAFR”, the protein production result is listed as “failed”.

Consider “MKKISVKFNQKQIFFGIIGLLLLGIIGIFAYKLNEYFSEPVIKAKSINLDASPSPKSKIIERLKKDQKIKVLKKNNNTDWWQVEIGSQKGWVASWLIQKKNYNAKNAGRLAEATIVLDPGHGGVDSGTQASNGAMEKTYTLRTALKVYKLLKAKNVHVIMTRHTNKTVALASRPALSNRVKANIYISFHFNSAGEQNAAEGYEVFKYNHNANSFASTIDKQFNNLPLYNRGVSFGNFEVLRDNKRPAILVEMGFMDSDYDFSYIQKSSYQQKVANDVTKSLTSYFN”, for which the protein production entry is on record as “failed”.

For the sequence “MSSPATTITFFFFFTLSSFFYITSSLQNNNNNKHTATVNSLNIPSAAAEITLVNPKLPPRSLSLTSSKKFEGSSNLVHLRYHMGPVLSSSPINIYVIWYGQWSRPHKSLIRDFLNSISDAKAPSPSVSEWWRTASLYTDQTGSNVSRSVLIAGEYSDSKYSHGQHLTRLTIQEVIASAARSASFPVDHKNGMYLVLTSHDVTMQDFCRAVCGFHYFTFPSMVGYTMPYAWVGQSGKQCPEVCAYPFALPGYMGHGGPGELRPPNGETGVDGMVSVIGHELAEVVSNPLINAWYAGEDPTAPTEIGDLCEGLYGSGGGGGYIGQVMRDREGKTFNMNGKGGRKFLVQWIWNPNLKACSGPNSVD”, the protein production entry was “failed”.

As for “MLYIFLLPIIGLALAFIINKIFPRAQFRGYDVLPFFFIAACSLITLHINRPSFLPYGFLLYFILVIVVSLSDAIRNKNISLGKTIRKLWDYLAACTCFWYLGLLIMMFL”, the protein production result was “failed”.

Consider “MPLRLPPMLPSVDTSEELDAMVRDEALLRPAAQDLCAHLGLTGARLVRFDDGSLPVYAVGGTLVLKLFPGFEAAEGVREARVLSHLWGQLPVPTPRLHAGEMYKNGWRYVLMSRLPGVSLSTAWSRIPAVEQDRIVDEAAETLAALHSVDWKPLADVVGPADWGTFLRRQRAGVLEHHRAAGLPKPWLDQIPGFLDAVRLPASGERVLLHTEFMREHLTVDPQDGWRLTGLFDFEPAMIGDPAYDFVSVGLFMSRGDPRLLRRFYQAYGRPPHDPYQLLAYTLLHVYSDLAWYLREMPAPPHPRLDALAETWFGTDG”, for which the protein production result is given as “failed”.

Regarding “LAVIVVLGCFALGLGGIIGFVHKGEDYQAYQKLQWHTLAPEKIAPLVAQGYTVFVDITSDWCSICQTNKAEVTHREQVVNALMADDIILMQGNWSEADNTIAGYMQYEGIPGTPYNKIYGPRNPNGIVLPSKLTIEAVINGLAQA”, the protein production result was “failed”.

As to “MKLNIKDVVLNYNIIGEGEPIIILHGYSVDHTIMFGCMENLFSDESRYKRIYVDLPGMGKSTSSDSIKTSDNMLDIILEFIMKVTKGENFLLVGESYGGYLSRGVVYKIREKVNGLFLICPAIIPDFNKRTVPEHVILAYDEKLMSKLNKEEAEEFSSMSVVQNEKIYLRFKEEVMSGIKLGNQDFLERLQREGYGFSFDVDKLPQKFDKPTLMLLGKQDASVGYKDAWNILDNYPRATFAVLDMAGHNLQIEQEDIFNLLGKEWISRTYREKDY”, the protein production result was “failed”.

“MITQVNQLDELQLKDLKTLRAECKKNDGSIPNLYIHILKQHRSLPTSFLYYQNGALIGFLSIYFFYDDAVEVAVLVSPQYRRQGIAKQLIKEALPLIKSQNYFNLIFSCPSRLNDNWLTSKGFTYLHSEYFMERDDLNPILDYIR”: the protein production result is “not failed”.

For the sequence “MSLDRPRCCLRGKECSINRFQQVESRWGYSGTSDRIRFSVNKRIFVVGFGLYGSIHGPTDYQVNIQIIHTDSNTVLGQNDTGFSCDGSASTFRVMFKEPVEVLPNVNYTACATLKGPDSHYGTKGMRKVTHESPTTGAKTCFTFCYAAGNNNGTSVEDGQIPEVIFYTEGHHHHHH”, the protein production result is recorded as “not failed”.

(Values after a protein production outcome set (Wang et al. 2014).)
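Note: failed if final PepcDB status was selected cloned or expressed and not failed if soluble or beyond.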
